Assay results from the DeepSol protein solubility set.

assay: soluble on expression in E. coli; label from the status in PepcDB or PDB records

Question: For “MGSDKIHHHHHHMQILLANPRGFCAGVDRAISIVERALELFGTPIYVRHEVVHNRYVVNGLRERGAIFIEQIEDVPDGAILIFSAHGVSQAVRNEAKNRDLTVFDATCPLVTKVHMEVARASKKGVEAILIGHAGHPEVEGTMGQYSNADGGMYLVESPDDVWQLQVKDEKNLCFMTQTTLSVDDTYAVIDALRERFPRIIGPRKDDICYATTNRQEAVRHLSDKADVVFVVGSKNSSNSNRLAELAQRAGKAAYLIDSADDIQESWLTGASYVGVTAGASAPDILVQQVIQRLKELGGKVAVEMQGREENIVFEVPKELRVEVKQID”, which “soluble on expression in E. coli” value is on record?
Answer: The value was “not soluble”.

Question: Which “soluble on expression in E. coli” value does the source give for “MHERERHRIILSATQEKAVVTVQDIAELTDASEATIRRDIASLHVQGKLRRVRGGAEAVHPPQLGNLAARPFRVSESVNIDKKRAIARKAVDLCNDGDAIILNGGTTTFQMVHYMAARRLQVMTNSFAIAEHLVKHSKCNVNVPGGAIYRDQSLILSPFENDAIRNFYARRIFLGAQGVGALGIMESDALVIQSEQKLMRQAEELIVMVDSSKFRKRSSLILCPLENVTTIITDDGISDEAARMVENAGVELLIAGAVAAGKTAGPPDEENSSSVALEHHHHHH” here?
Answer: The value was “not soluble”.

Question: With “MPEIIGKLLKSDGKVVSEIEKQVSQALIDLETNDDVQSQLKELYIVGVKEVELGNKSAIIIYVPVPQLKAFHKIHPALVRELEKKFGGRDILILAKRRILPKPQRGSKARPQKQKRPRSRTLTAVHDAWLDELVYPAEVVGRRIRVKLDGKKVYKVHLDKSHQTNVGHKIGVFASVYRKLTGKDVTFEFPDPIF” as the sequence, how does the “soluble on expression in E. coli” value read?
Answer: The value was “not soluble”.

Question: Which “soluble on expression in E. coli” value does the source give for “MAHHHHHHMPDGQQQSAKCATQVQNGEEATRNTYPRRDDTKLHVGLDYSSFYLDTPYKIIKCMNKGSHFLYWGSDTLCGQSDQVTKEFKMNEMKKNNCEELRNSRFIFFDSQKKLLVLRYNIRKNSFNYVSDSDPIYVYFYQLHEKNFLDDNIIKENKNSLLIYPYTYVKIWESLTCYINEEVINKIEPVNKTFCSSFLEEEVEEEKKKKKGGTDLRREEEMNLCNQPYMFYSVIPRYPASKTYPKEGRVSGGSRHKKEDNVGVITAEGDGASSINMGGDGSGGINTEGDGSGGAGGINMEGDHPVDPDEPPNDHLDGA” here?
Answer: The value was “not soluble”.

Question: For “MTAKTEDNLKEYTRSQVEQHCTHDDLWLLFRDKVYNMTPYFNQHPGGLAILRYAGKDVTTVLPFVVSHGIAWKIVEQKLQEHLIGKLKE”, which “soluble on expression in E. coli” value is on record?
Answer: The value was “not soluble”.

Question: Which “soluble on expression in E. coli” value does the source give for “MAHHHHHHMRKLSGDLKATAATPLTPPVTTPQPQPDGTDRSKSAGGQATYEPLHVLGQGSFGVVMMARVRETGKMVAVKKVLFDRRLHHRELLLLRDHLGPGTHAGQAGTGNHDDPGKEAGKTDPSNTNNSAGEVGFTPLGDLASVPTTVSYHPCIVRLLDHFTVAGPNGEQYLYIVMDYLPLDIHHLHHIYLRQKQQRMPFILVKVIMFQLARALMFLHLRGICHRDVKPSNLLIDPETGVLKLCDFGSAKVMQPQGVNGPIEKNVSYICSRYYRAPELLLGSLYYHFHVDMWAAGCVLAELLCGEVLFKGASTVDQMAEIFKVLGAPSRQELLALNPQGAEALFHATGAGLEVTPTSAANTATSSDYLQRYHALRIKALQWQNVLPPNTPPAAVSLVGELLRYTPAERLSAAEVLEHSFFDDIFAEDASLPNGAPLPVSMFEVTAEEMEALPPWLLERMASAEASARRRHVSAGGSGKVVPPQKRQEQEGRK” here?
Answer: Its value is “not soluble”.

Question: Which “soluble on expression in E. coli” value does the source give for “MSLTNSSNLIDGIEVYVLNNPKDVKPHWVSHFIVPTANELLIKIKTKNGNSGFGVATSYTDIKPIIKPFTNGLQDLVIGEDPFCPEKIYDKIFKLTDTRMSSEKGWSREALIRISAALDIACWDLIGKAANIPLYKLFGGYRNQIPVYVTCAYYRDGKDEIELRDELKKLIDIGHQSFKVKVGGLSIKEDAKRLETIRNEIGNQKDLMIDVNRAWDLKTAIEGVKEFKKFNPIWIEEPVRWEDDRRNLKLLSKQTDIPLSGGESEITIHGCRSMIEEEAIQILQFDCTMFGGFTNGKKLSALCEINHIDIAPHHDCYIHAPLVASSPSGRIVESFDDERDPIQSELFENQHKMSNGWIYLNENPGLGFDISEAALKKFGKLVYKKEGHHHHHH” here?
Answer: The value was “soluble”.

Question: For “QADAGPDKELTLPVDSTTLDGSKSSDDQKIISYLWEKTQGPDGVQLENANSSVATVTGLQVGTYVFTLTVKDERNLQSQSSVNVIVKEE”, which “soluble on expression in E. coli” value is on record?
Answer: The value was “soluble”.

Question: Which “soluble on expression in E. coli” value does the source give for “MAHHHHHHMSDTRDVAQPRRGSFASRKARGETGGSKSSSSSSKNKEHSYDARRYHQNANTHGIHALRTFDCPVCDSKNTIRVTLNPRLGEGTVSCTYCCSLRPAPPDLPYPSVQRFVPSLENRADVFFRFNEQYAALLRQHKSERVGESVDPSSCLATVDNTRKRANKDDGESGGRARGPRGESRDEDGLFGDCALHMDTGLFDNAVDQHVTGTLAMLGSDDDGGSNTVADADPGNPKGVSTPSPPRPDGADMPESDFMNVAVIAGVDEAFAAHAADGVDGMGEADAEEVDVAAFFADSD” here?
Answer: Its value is “not soluble”.

Question: For “MSKLVGNLIPNTFFITKGSGESDLELHAGSYHMALFDAGISDFNIMTYSSVLPATAHLATMDEIDLPPFGSELKTIMAVSHGYQDEFVSAGVVYAWMYKDENFDEKAGGLVCEVSGRYRIEELESRLIRVINDLHQKTYSQYYLGELNFITEGITIEKRYGTALAGLCFMDFIQPEVQKK”, which “soluble on expression in E. coli” value is on record?
Answer: Its value is “not soluble”.

Question: Which “soluble on expression in E. coli” value does the source give for “MSLDGKPLADKMRPTTLNNYMGQNKVLGENTMLRNLLQANDIPSIILWGPPGCGKTTLAHIIAKNAQKSSSRFVTLSATSASTSDVREFIKQAQNEQRLFKRKTILFVDEIHRFNKMQQDTFLPHVECGTITLIGATTENPSFQVNTALLSRCRVIVLEKLSVEAMETILMRAVDSLGLKVLKDGEQLVGSSSDVSETSVYVEEKALTTLAHLCDGDARTGLNGLQLSVQASLAAEKDPIKQGIVIKEEHIKEGLQRSHILYDRAGEEHYNCISALHKSMRGSDKNASLYWLGRMLEGGEDPLYVARRLVRFASEDIGLADPQALTQAVSTYQACHFIGMPECDVILAQCVMYMACAPKSVTVYSAYNKVKNCLKNHKGPLPPVPLHLRNAPTKLMKGLGYGKGYKYNPNFSEPVEQDYMPEEMKGVTEGHHHHHH” here?
Answer: Its value is “not soluble”.

Question: For “AKTAAALHILVKEEKLALDLLEQIKNGADFGKLAKKHSICPSGKRGGDLGEFRQGQMVPAFDKVVFSCPVLEPTGPLHTQFGYHIIKVLYRN”, which “soluble on expression in E. coli” value is on record?
Answer: Its value is “soluble”.

Question: Which “soluble on expression in E. coli” value does the source give for “LVSITDLQGRILYANDNFCAVSRYGREELVGQDHRIVNSGYHGKAYIRDMWRTISRGNIWQGEFCNRRKDGTRYWVDSTIVPLMDNAGKPRQYISIRRDITAQKEAEAQLARLKQAMDANSEMILLTDRAGRIIYANPALCRFSGMAEGELLGQSPSILDSPLADQETLAAMQEALQAGQPWSGRLLNRRRTGPAPHDAEDYWAEISTTPIHTDGNGLVGYVQIQHD” here?
Answer: The value was “soluble”.

Question: With “MSLSLDFSDNTFQPLAARMRPENLAQYIGQQHLLAAGKPLPRAIEAGHLHSMILWGPPGTGKTTLAEVIARYANADVERISAVTSGVKEIREAIERARQNRNAGRRTILFVDEVHRFNKSQQDAFLPHIEDGTITFIGATTENPSFELNSALLSRARVYLLKSLSTEDIEQVLTQAMEDKTRGYGGQDIVLPDETRRAIAELVNGDARRALNTLEMMADMAEVDDSGKRVLKPELLTEIAGERSARFDNKGDRFYDLISALHKSVRGSAPDAALYWYARIITAGGDPLYVARRCLAIASEDVGNADPRAMQVAIAAWDCFTRVGPAEGERAIAQAIVYLACAPKSNAVYTAFKAALADARERPDYDVPVHLRNAPTKLMKEMGYGQEYRYAHDEANAYAAGEVYFPPEIAQTRYYFPTNRGLEGKIGEKLAWLAEQDQNEGHHHHHH” as the sequence, how does the “soluble on expression in E. coli” value read?
Answer: Its value is “soluble”.

Question: For “GSMSFLGFGGGQPQLSSQQKIQAAEAELDLVTDMFNKLVNNCYKKCINTSYSEGELNKNESSCLDRCVAKYFETNVQVGENMQKMGQSFNAAGKF”, which “soluble on expression in E. coli” value is on record?
Answer: Its value is “soluble”.

Question: For “MKLPVREFDAVVIGAGGAGMRAALQISQSGQTCALLSKVFPTRSHTVSAQGGITVALGNTHEDNWEWHMYDTVKGSDYIGDQDAIEYMCKTGPEAILELEHMGLPFSRLDDGRIYQRPFGGQSKNFGGEQAARTAAAADRTGHALLHTLYQQNLKNHTTIFSEWYALDLVKNQDGAVVGCTALCIETGEVVYFKARATVLATGGAGRIYQSTTNAHINTGDGVGMAIRAGVPVQDMEMWQFHPTGIAGAGVLVTEGCRGEGGYLLNKHGERFMERYAPNAKDLAGRDVVARSIMIEIREGRGCDGPWGPHAKLKLDHLGKEVLESRLPGILELSRTFAHVDPVKEPIPVIPTCHYMMGGIPTKVTGQALTVNEKGEDVVVPGLFAVGEIACVSVHGANRLGGNSLLDLVVFGRAAGLHLQESIAEQGALRDASESDVEASLDRLNRWNNNRNGEDPVAIRKALQECMQHNFSVFREGDAMAKGLEQLKVIRERLKNARLDDTSSEFNTQRVECLELDNLMETAYATAVSANFRTESRGAHSRFDFPDRDDENWLCHSLYLPESESMTRRSVNMEPKLRPAFPPKIRTY”, which “soluble on expression in E. coli” value is on record?
Answer: Its value is “soluble”.

Question: For “MGHHHHHHSHPPEKHLGIYSVLPNHKADAVLSMPSSVTSGLHVQPALAVSMDFSTYGGLLPQGFIQRELFSKLGELAVGMKSESRTIGEQCSVCGVELPDNEAVEQHRKLHSGMKTYGCELCGKRFLDSLRLRMHLLAHSAGAKAFVCDQCGAQFSKEDALETHRQTHTGTD”, which “soluble on expression in E. coli” value is on record?
Answer: The value was “soluble”.

Question: For “MSLNLDYTTYRIICSHPFGISRSTHTYYDIVYIYISDGEYIGRGEAAPSVRYDESTNQIITHLKSIDNIDNNLNLEEGAFWCKKNSNGISSLEAALSTAWLDLWTKKNNRRISTYFNSGKNMLYTSFTIAIGDLDLIPKKIEEAKSYNILKIKLGINEQHDKNIIKLIRKETDKIIRVDANEGWDLDTGKKMCKWLADHNVEFVEQPFKAQNLGDTAKLRDVSPLPLIADENSIKSSNIPDIAHAFDGINIKLMKCGSLFEAKKMIDLARKYDMKIMLGCMVESSIGITAMSNLSPQVDFADLDGNLLIDNDPYIGVKVVDGKLKLPSGDGLGLTLNQKYRKDFGNLKEGHHHHHH”, which “soluble on expression in E. coli” value is on record?
Answer: Its value is “soluble”.

Question: With “MNFLRKIVKNCKDEEIPKPGTPSAPPDDDDLWMPPPEYVPLTQIKGKENVRNFCINGEIKICSPNGYSFRILRHILKSFDNVYSGNRRLIGVVKVVIGLVLSASPVPEGMNWVYKLRRTLIFQWAESHGPLEGEELEYSQEITWDDEAEFVSLQIRVSAKQCHIQGRLWCINMNSKACQLWADMGLKTQQSQEDENTSLLLE” as the sequence, how does the “soluble on expression in E. coli” value read?
Answer: Its value is “soluble”.

Question: Which “soluble on expression in E. coli” value does the source give for MPVEEKKKGMAIHSSLSLSLSLSLSLSLSLCDSEREG here?
Answer: Its value is “not soluble”.

Question: With “MAHHHHHHMRRTLALYKQGRSREPNVGRLLYGKRKNLVHHASEAKPSVTAVLAQTPTERLPVAVKHALQVKELHREQIATLLKQHRALRRFDRTEVIVQALRDAKQPLTSQHYCVLMAHANDERQTRRALQFWKDAVSEGKVNERLHGALMSTYRNAGNWRAAMRHCERMWRDQQVLDPLAAHAVMNACRRYGPWQMGLKVFSDAVQHGTKPNGVVYLELLRLIAQSKMPARWMYGLAILRALEASVEVTAGHYNAVLATMGGRNWEKGIELFHSMQVHNVQPSTETLNTVQQLHPHSVSHCIRCVAEAHALGMPITDTMYRNVLLNLFRMQLNNEATQFAEREYKLDCVDAGNPLTHTLSLSVAMVDALLSHPRPHDALLVYESFQDKIGDVVAAATRQLGTSGSLEQRWLVQGRVAVVDHNVLLSTTFESLIHHYDSVFVPFASVRLLVRRARENGHSVQGLHMKTTLRRIGLLLKREEWRMLRVLPYAHQLLAHTYLSEGGPASPEALKALREEAETQSLLPESPQTPTAVAKAVSAYGQALLRRLTPVGEAAEVAGAVRADQSGERGTEDAAKNLVIREAAGGAADTGASSLVSSKAWPAATAPFPMVLHSPRRITSVERVTAVAAMLKSLNPDAEVHVLSTNASQLAAVRHWNAVRVGVLLVPVHYPDQLRQMAPPALPISEGAVAAAMAAPGFRGPKPRL” as the sequence, how does the “soluble on expression in E. coli” value read?
Answer: Its value is “not soluble”.
